Experiment [1] has as its target Apoprotein of COCP (Apo-COCP) (Synechocystis). Put plainly: SEC. (Size exclusion chromatography separates by hydrodynamic size, large species first.)
Experiment [2] has as its target C-terminal OCP-related Carotenoid-binding Protein (COCP), carotenoid-bound holoform (Synechocystis). The experiment is described as follows: SEC.
For experiment [3] the target is unchanged. The experiment is described as follows: cross-linking.
Experiment [4] addresses Synechocystis OCP^WT apoprotein (Apo-OCP) (Synechocystis) (UniProt P74102). Put plainly: cross-linking.
Experiment [5] concerns the target COCP with an Ala substitution of Trp-288 (COCP-W288A), carotenoid-bound holoform (Synechocystis). Put plainly: SEC.
The target of experiment [6] is Synechocystis OCP^WT apoprotein (Apo-OCP) (Synechocystis) (UniProt P74102). The experiment is described as follows: SEC.
Experiment [7] has the same target. Put plainly: SEC-SAXS with right angle light scattering.
Experiment [8] shares this target. The experiment is described as follows: SEC. This is another data set of the same source.

Drawing on doi:10.1101/127183, this text covers stoichiometry N and stoichiometry N (COCP subunit per Apo-OCP subunit) for four substances.

Chain of UniProt P74102 (P74102 whole entry): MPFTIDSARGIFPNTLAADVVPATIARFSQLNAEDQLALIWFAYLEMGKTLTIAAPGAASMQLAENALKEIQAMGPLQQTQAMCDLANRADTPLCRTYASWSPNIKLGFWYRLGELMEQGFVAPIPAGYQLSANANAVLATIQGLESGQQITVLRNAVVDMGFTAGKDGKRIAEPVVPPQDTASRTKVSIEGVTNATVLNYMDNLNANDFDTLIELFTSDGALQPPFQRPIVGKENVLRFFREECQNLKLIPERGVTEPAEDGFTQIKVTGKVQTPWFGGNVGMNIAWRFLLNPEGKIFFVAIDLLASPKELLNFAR

In general, stoichiometry N refers to a count of units in the complex or per binding partner. The substance “Apoprotein of COCP (Apo-COCP) (domain or fragment)” showed a stoichiometry N in experiment [1] of 2.
Consider “C-terminal OCP-related Carotenoid-binding Protein (COCP), carotenoid-bound holoform (domain or fragment)”, for which the stoichiometry N in experiment [2] and in experiment [3] was 2 throughout. For the same substance, the stoichiometry N (COCP subunit per Apo-OCP subunit) in experiment [4] worked out at 1.
In turn, “COCP with an Ala substitution of Trp-288 (COCP-W288A), carotenoid-bound holoform (domain or fragment)” yielded a stoichiometry N in experiment [5] of 2.
Take “Synechocystis OCP^WT apoprotein (Apo-OCP) (from UniProt P74102 1-317) (natural protein)”: the stoichiometry N in experiment [6], in experiment [7] and in experiment [8] was 2 throughout.
